The results in this text go back to the RNAGym collection of RNA variant scans (doi:10.7554/elife.90254).

B1: LINE1-mini (parent)
chain: GGCAGAGCUCAACACAGCGUGGCAAAGUGGCUGUGGCUAGACUGCC

Variants of B1 are the subject of this series. In words: self-cleavage, relative activity (ratio to wild type); higher = more cleavage; in vitro, sequencing; the parent is a self-cleaving ribozyme.
Consider G29U, for which the self-cleavage was 1.09.

Regarding G29A, the self-cleavage came to 0.88. As for G29C, the figure is 0.49; as for G30A G44A, 0.64; as for G30A G44U, 0.18. As for G30A G44C, the figure is 0.56; as for U28C G30A, 0.96; as for U28C G30C, 0.64. For U28C G30U, the self-cleavage was determined as 0.7. As for G29C U43A, the figure is 0.03; as for G29C U43C, 0.26; as for G29C U43G, 0.01. The figure for U28G G35A is 0.14; for U28G G35C it is 0.07. U28G G35U: the self-cleavage was 0.09.

Turning to G29U U34A, the self-cleavage was found to be 0.37. For G29U U34C, the self-cleavage was 0.13. Take G29U U34G: the self-cleavage came to 0.27. As for G29A C45G, the figure is 0.2. As for G29A C45A, the figure is 1.03; as for G29A C45U, 1.67.

On to G29C U34C, for which the self-cleavage was 0.1. With G29C U34A, the self-cleavage amounted to 0.28. As for G29C U34G, the figure is 0.2; as for G29U G30C, 0.69; as for G29U G30U, 1.72. The figure for G29U G30A is 1.92; for G29A C42A it is 0.16. As for G29A C42U, the figure is 0.42; as for G29A C42G, 0.04; as for G29U C46U, 1.51.

As to G29U C46A, the self-cleavage is 0.82. Consider G29U C46G, for which the self-cleavage turned out to be 0.93.

In the case of G29C C37U, the self-cleavage stood at 0.02. The figure for G29C C37G is 0.02; for G29C C37A it is 0.02; for G30A U38G it is 0.03. Turning to G30A U38A, the self-cleavage came to 0.72.

On to G30A U38C, for which the self-cleavage was determined as 0.64. On to G29U A41G, for which the self-cleavage was 0.41.

Turning to G29U A41U, the self-cleavage was 0.9. The figure for G29U A41C is 0.05; for U28G G30C it is 0.77. The figure for U28G G30A is 0.9; for U28G G30U it is 0.77; for U28G U34A it is 0.26. As to U28G U34C, the self-cleavage worked out at 0.11. The figure for U28G U34G is 0.23; for G29A U38G it is 0.01.

On to G29A U38A, for which the self-cleavage is 0.28. The figure for G29A U38C is 0.44; for G29A C31U it is 0.95; for G29A C31G it is 0.39. For G29A C31A, the self-cleavage was found to be 0.43. As for G30C, the figure is 1.63; as for G30A, 1.87. In the case of G30C A41U, the self-cleavage turned out to be 0.73. As to G30C A41G, the self-cleavage is 0.21. As to G30C A41C, the self-cleavage came out at 0.05. Take G29C C46A: the self-cleavage was 0.68.

In the case of G29C C46U, the self-cleavage was 0.6.

With G29C C46G, the self-cleavage was 0.52.

Regarding G29C G35U, the self-cleavage amounted to 0.06.

G29C G35A: the self-cleavage was found to be 0.13. The figure for G29C G35C is 0.15; for G30C A39G it is 0.12. Turning to G30C A39U, the self-cleavage came to 2.23. As to G30C A39C, the self-cleavage turned out to be 0.26.

As for G29A G36U, the self-cleavage was 0.09. The figure for G29A G36C is 0.09. Regarding G29A G36A, the self-cleavage was determined as 0.11.

As for G30A G40C, the self-cleavage was determined as 0.16. Turning to G30A G40A, the self-cleavage is 0.19. The figure for G30A G40U is 0.18; for G30A C31G it is 0.09; for G30A C31U it is 0.14.

Take G30A C31A: the self-cleavage stood at 0.4.

Turning to G30A U43C, the self-cleavage turned out to be 0.22. For G30A U43A, the self-cleavage was 0.12. The figure for G29U U43G is 0; for G29U U43C it is 0.08; for G29U U43A it is 0.2. Turning to G29A U43G, the self-cleavage is 0.04. G29A U43C: the self-cleavage turned out to be 0.08. Take G29A U43A: the self-cleavage stood at 0.16. For the variant G29C G36U, the self-cleavage was 0.04. With G29C G36C, the self-cleavage turned out to be 0.05. The figure for G29C G36A is 0.02; for U28G C46G it is 0.99. The figure for U28G C46A is 1.1; for U28G C46U it is 0.36. With G30C C46A, the self-cleavage is 0.45.

Regarding G30C C46G, the self-cleavage worked out at 0.59. The figure for G30C C46U is 1.09. For the variant U28G C45A, the self-cleavage was found to be 0.44. The figure for U28G C45G is 0.27; for U28G C45U it is 0.92; for G30C G40C it is 0.18.

For G30C G40U, the self-cleavage amounted to 0.16. Consider G30C G40A, for which the self-cleavage is 0.13.

Turning to G29U A39C, the self-cleavage amounted to 0.21.

Take G29U A39G: the self-cleavage came out at 0.06. G29U A39U: the self-cleavage was 0.7. In the case of G30A C46A, the self-cleavage came out at 1.15.

With G30A C46U, the self-cleavage was 1.33. The figure for G30A C46G is 1.5. For the variant G29U C42U, the self-cleavage came to 0.44. On to G29U C42A, for which the self-cleavage was 0.14. With G29U C42G, the self-cleavage is 0.04. Consider U28C U34A, for which the self-cleavage amounted to 0.22. In the case of U28C U34G, the self-cleavage was determined as 0.21. The figure for G29A G35A is 0.23; for G29A G35U it is 0.15; for G29A G35C it is 0.09.

G29U C45A: the self-cleavage stood at 0.63. In the case of G29U C45U, the self-cleavage stood at 1.99. As to G29U C45G, the self-cleavage was 0.78.

Turning to U28G C31G, the self-cleavage was 0.28.

On to U28G C31U, for which the self-cleavage stood at 0.47. As for U28G C31A, the self-cleavage is 0.22. As for G29C U32C, the figure is 0.7.

In the case of G29C U32A, the self-cleavage is 0.31. The figure for G29C U32G is 0.2; for U28G G44U it is 0.23; for U28G G44A it is 0.28. For the variant U28G G44C, the self-cleavage was found to be 0.54. Take G29C A41C: the self-cleavage is 0.04. As to G29C A41G, the self-cleavage is 0.21. As for G29C A41U, the self-cleavage stood at 0.32. Turning to G30A C37G, the self-cleavage was found to be 0.06.

In the case of G30A C37A, the self-cleavage was 0.05. Take G30A C37U: the self-cleavage is 0.11. The figure for G30C C31A is 0.75; for G30C C31G it is 0.44.

Take G30C C31U: the self-cleavage is 1.32.

On to U28G U32A, for which the self-cleavage turned out to be 0.05. For the variant U28G U32G, the self-cleavage came out at 0.24. For the variant U28G U32C, the self-cleavage turned out to be 0.27. As for U28G U43G, the figure is 0; as for U28G U43C, 0.08; as for U28G U43A, 0.06. Consider G29U G44A, for which the self-cleavage was found to be 0.41.

In the case of G29U G44C, the self-cleavage was 0.44.

In the case of G29U G44U, the self-cleavage is 0.31. The figure for G29A U34C is 0.08. As for G29A U34G, the figure is 0.38.

On to G29A U34A, for which the self-cleavage was 0.19.

Regarding G29A G44A, the self-cleavage was found to be 0.36.

For the variant G29A G44U, the self-cleavage turned out to be 0.26. The figure for G29A G44C is 0.34; for U28C U32C it is 0.27. The figure for U28C U32A is 0.09; for U28C U32G it is 0.3.

With U28G G33C, the self-cleavage came out at 0.05. As for U28G G33U, the figure is 0.06.

Regarding U28G G33A, the self-cleavage is 0.11. As for G30A C42U, the figure is 0.6; as for G30A C42A, 0.14.

For the variant G30A C42G, the self-cleavage was 0.05. As for U28G U38A, the figure is 0.19; as for U28G U38C, 1.1; as for U28G U38G, 0.02. The figure for G29C C42G is 0.02; for G29C C42A it is 0.1; for G29C C42U it is 0.22.

Take G29C G44U: the self-cleavage came to 0.37. As for G29C G44A, the figure is 0.15.
